Experiment: Solubility versus pH curves (centrifugation, reverse HPLC)
Format: physicochemical
Protocol: Solubility versus pH curves were measured in the following way. A formulation was prepared and aliquotes were adjusted to pH values in the desired range by adding HClO4 or HCl and NaOH. These samples were left equilibrating at room temperature for 2-3 days. Then the samples were centrifuged. A small aliquot of each sample was withdrawn for reverse HPLC analysis for determination of the concentration of the proteins in solution. The pH of each sample was measured after the centrifugation, and the concentration of each protein was depicted versus the measured pH.

Compound	pH of complete precipitation (below physiological pH) (Example 1, 0.6 mM GlyA21 ArgB31 ArgB32 human insulin, 0.46 mM Zn(Ac)2, 30 mM phenol) [pH]	precipitation versus pH compared to formulation of the insulin analogue alone (Example 2 mix, 0.6 mM insulin analogue, 0.46 mM Zn(Ac)2, 30 mM phenol, 50 μM pramlintide)	solubility state at pH 7 (Example 3 mix, pH 7, 0.6 mM GlyA21 ArgB31 ArgB32 human insulin, 0.3 mM Zn(Ac)2, 30 mM phenol, 100 μM pramlintide)	pH above which completely precipitated (FIG. 1, 0.6 mM GlyA21 ArgB31 ArgB32 human insulin, 0.46 mM Zn(Ac)2, 30 mM phenol) [pH]	pH of full precipitation (below physiological pH) (Example 2 mix, 0.6 mM GlyA21 ArgB31 ArgB32 human insulin, 0.46 mM Zn(Ac)2, 30 mM phenol, 50 μM pramlintide) [pH]
GlyA21 ArgB31 ArgB32 human insulin	< 7.4	not changed	completely precipitated	> 6.5	–
CC[C@H](C)[C@H](NC(=O)[C@@H]1CCCN1C(=O)CNC(=O)[C@H](Cc1ccccc1)NC(=O)[C@H](CC(N)=O)NC(=O)[C@H](CC(N)=O)NC(=O)[C@H](CO)NC(=O)[C@H](CO)NC(=O)[C@H](Cc1c[nH]cn1)NC(=O)[C@@H](NC(=O)[C@H](CC(C)C)NC(=O)[C@H](Cc1ccccc1)NC(=O)[C@H](CC(N)=O)NC(=O)[C@H](C)NC(=O)[C@H](CC(C)C)NC(=O)[C@H](CCCNC(=N)N)NC(=O)[C@H](CCC(N)=O)NC(=O)[C@@H](NC(=O)[C@H](C)NC(=O)[C@@H]1CSSC[C@H](NC(=O)[C@@H](N)CCCCN)C(=O)N[C@@H](CC(N)=O)C(=O)N[C@@H]([C@@H](C)O)C(=O)N[C@@H](C)C(=O)N[C@@H]([C@@H](C)O)C(=O)N1)[C@@H](C)O)C(C)C)C(=O)N[C@@H](CC(C)C)C(=O)N1CCC[C@H]1C(=O)N1CCC[C@H]1C(=O)N[C@H](C(=O)N[C@@H](CC(N)=O)C(=O)N[C@H](C(=O)NCC(=O)N[C@@H](CO)C(=O)N[C@@H](CC(N)=O)C(=O)N[C@H](C(=O)N[C@@H](Cc1ccc(O)cc1)C(N)=O)[C@@H](C)O)C(C)C)[C@@H](C)O [pramlintide, Pro25 Pro28 Pro29-h-amylin]	–	–	–	–	< 7.4
